{
  "source": "paper PMC4226670",
  "about": "“TAp73 promotes cell survival upon genotoxic stress by inhibiting p53 activity”",
  "binders": {"B1": {"name": "PUMA promoter duplex, FAM (dsDNA)", "DNA 1": "CGCGCCTGCAAGTCCTGACTTGTCCGCGGC", "DNA 2": "GCCGCGGACAAGTCAGGACTTGCAGGCGCG"}},
  "molecular_target": "T1, GST-TAp73α (UniProt O15350 1-636)",
  "T1 sequence": "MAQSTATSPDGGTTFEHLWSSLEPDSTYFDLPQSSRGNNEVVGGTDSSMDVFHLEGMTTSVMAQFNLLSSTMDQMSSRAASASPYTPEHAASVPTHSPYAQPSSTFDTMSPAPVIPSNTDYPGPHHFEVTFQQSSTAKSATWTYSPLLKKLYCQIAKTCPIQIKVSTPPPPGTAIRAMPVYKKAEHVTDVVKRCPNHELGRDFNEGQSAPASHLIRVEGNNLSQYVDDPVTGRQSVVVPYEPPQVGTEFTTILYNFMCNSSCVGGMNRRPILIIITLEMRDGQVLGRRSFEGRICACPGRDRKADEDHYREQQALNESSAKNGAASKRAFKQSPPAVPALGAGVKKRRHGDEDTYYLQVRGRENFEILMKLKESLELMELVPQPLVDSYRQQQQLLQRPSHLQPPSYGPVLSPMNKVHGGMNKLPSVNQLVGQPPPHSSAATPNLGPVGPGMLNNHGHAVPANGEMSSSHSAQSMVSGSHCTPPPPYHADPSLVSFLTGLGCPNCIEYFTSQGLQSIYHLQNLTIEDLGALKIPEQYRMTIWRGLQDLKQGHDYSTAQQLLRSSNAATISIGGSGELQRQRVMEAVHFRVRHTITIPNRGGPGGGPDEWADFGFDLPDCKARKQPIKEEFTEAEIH",
  "test": "fluorescence polarization; FP: 4 nM FAM duplex, 100 mM NaCl, 10 mM Tris-HCl pH 7.5, 10% glycerol, 5 mM DTT, 0.2 mg/mL BSA, room temperature; pull-down: 2 ug duplex with lysate, 90 min room temperature, then streptavidin beads 2 h 4 C",
  "conditions": "protein: commercial; tags: GST; chain copies: 4; label: 5' 6-FAM on strand 1; blunt",
  "data": [
    {"binder": "B1", "values": [
      {"measurement": "Kd", "value": 87.1, "unit": "nM"}
    ]}
  ]
}
